Data published in FireProtDB.
Values joined by “and” are separate entries in the source; they are usually repeats but may differ in a detail not shown here. Equal values may be shown once.

Details: whole UniProt chain shown
[1] = Sus scrofa, pH 6.5, 20 °C, GdnHCl, Fluorescence, MES-NaOH 20 mM, NaCl 100 mM, reversible: yes
[2] = Thermus thermophilus (strain ATCC 27634 / DSM 579 / HB8), pH 7.4, 29 °C, Thermal, CD, Potassium phosphate 50 mM, reversible: Yes
[3] = Thermus thermophilus (strain ATCC 27634 / DSM 579 / HB8), pH 7.4, 35 °C, Thermal, CD, Potassium phosphate 50 mM, reversible: Yes
[4] = Thermus thermophilus (strain ATCC 27634 / DSM 579 / HB8), pH 7.4, Thermal, absorbance, Potassium buffer
[5] = Streptomyces tendae, pH 2, Thermal, DSC, Sodium phosphate 10 mM, Na2SO4 10 mM, reversible: yes
[6] = Streptomyces tendae, pH 5, 25 °C, Thermal, DSC, Sodium phosphate 10 mM, Na2SO4 10 mM, reversible: yes
[7] = Streptomyces tendae, pH 7, Thermal, DSC, Sodium phosphate 10 mM, Na2SO4 10 mM, reversible: yes

B1: Pilin wild type, Q9A1S2 (protein)
chain: MKLRHLLLTGAALTSFAATTVHGETVVNGAKLTVTKNLDLVNSNALIPNTDFTFKIEPDTTVNEDGNKFKGVALNTPMTKVTYTNSDKGGSNTKTAEFDFSEVTFEKPGVYYYKVTEEKIDKVPGVSYDTTSYTVQVHVLWNEEQQKPVATYIVGYKEGSKVPIQFKNSLDSTTLTVKKKVSGTGGDRSKDFNFGLTLKANQYYKASEKVMIEKTTKGGQAPVQTEASIDQLYHFTLKDGESIKVTNLPVGVDYVVTEDDYKSEKYTTNVEVSPQDGAVKNIAGNSTEQETSTDKDMTITFTNKKDFEVPTGVAMTVAPYIALGIVAVGGALYFVKKKNA
Tm (Streptococcus pyogenes serotype M1, pH 8, Thermal, CD, potassium phosphate buffer 10 mM, transition: 2): 85.1 °C

B2: Cytochrome P450 119 wild type, Q55080 (protein)
chain: MYDWFSEMRKKDPVYYDGNIWQVFSYRYTKEVLNNFSKFSSDLTGYHERLEDLRNGKIRFDIPTRYTMLTSDPPLHDELRSMSADIFSPQKLQTLETFIRETTRSLLDSIDPREDDIVKKLAVPLPIIVISKILGLPIEDKEKFKEWSDLVAFRLGKPGEIFELGKKYLELIGYVKDHLNSGTEVVSRVVNSNLSDIEKLGYIILLLIAGNETTTNLISNSVIDFTRFNLWQRIREENLYLKAIEEALRYSPPVMRTVRKTKERVKLGDQTIEEGEYVRVWIASANRDEEVFHDGEKFIPDRNPNPHLSFGSGIHLCLGAPLARLEARIAIEEFSKRFRHIEILDTEKVPNEVLNGYKRLVVRLKSNE
Tm (Sulfolobus acidocaldarius (strain ATCC 33909 / DSM 639 / JCM 8929 / NBRC 15157 / NCIMB 11770), pH 7.4, Thermal, absorbance, Tris): 91 °C

B3: Streptogrisin-B wild type, P00777 (protein)
chain: MRIKRTSNRSNAARRVRTTAVLAGLAAVAALAVPTANAETPRTFSANQLTAASDAVLGADIAGTAWNIDPQSKRLVVTVDSTVSKAEINQIKKSAGANADALRIERTPGKFTKLISGGDAIYSSTGRCSLGFNVRSGSTYYFLTAGHCTDGATTWWANSARTTVLGTTSGSSFPNNDYGIVRYTNTTIPKDGTVGGQDITSAANATVGMAVTRRGSTTGTHSGSVTALNATVNYGGGDVVYGMIRTNVCAEPGDSGGPLYSGTRAIGLTSGGSGNCSSGGTTFFQPVTEALSAYGVSVY
unfolding free energy (Streptomyces griseus, pH 5, 0 °C, GdnHCl, Fluorescence, potassium acetate 10 mM): 0.71 kcal/mol

B4: Glutathione S-transferase omega-1 wild type, Q9N1F5 (protein)
chain: MSGGSARSLGKGSAPPGPVPEGLIRVYSMRFCPFAQRTLLVLNAKGIRHQVININLKNKPEWFFQKNPSGLVPVLENSQGQLIYESAITCEYLDEAYPGKKLLPDDPYEKACQKMVFELSSKVPPLLIRFIRRENEADCSGLKEELRKEFSKLEEVLTKKKTTYFGGSSLSMIDYLIWPWFERLEALELNECIDHTPKLKLWMAAMMKDPAVSALHIEPRDLRAFNDLYLQNSPEACDYGL
denaturant m value [1]: 11.1 kcal/mol/M
unfolding free energy [1]: 23.3 kcal/mol
denaturant m value (Sus scrofa, pH 6.5, 20 °C, Urea, Fluorescence, MES-NaOH 20 mM, NaCl 100 mM, reversible: yes): 4.6 kcal/mol/M

B5: Inorganic pyrophosphatase wild type, P50308 (protein)
chain: MKLSPGKNAPDVVNVLVEIPQGSNIKYEYDDEEGVIKVDRVLYTSMNYPFNYGFIPGTLEEDGDPLDVLVITNYQLYPGSVIEVRPIGILYMKDEEGEDAKIVAVPKDKTDPSFSNIKDINDLPQATKNKIVHFFEHYKELEPGKYVKISGWGSATEAKNRIQLAIKRVSGGQ
Tm (Sulfolobus acidocaldarius (strain ATCC 33909 / DSM 639 / JCM 8929 / NBRC 15157 / NCIMB 11770), pH 7, Thermal, CD, HEPES 20 mM, MgCl2 5 mM): 98 °C
Tm (Sulfolobus acidocaldarius (strain ATCC 33909 / DSM 639 / JCM 8929 / NBRC 15157 / NCIMB 11770), pH 7, Thermal, CD, HEPES 20 mM): 89 °C

B6: Divalent-cation tolerance protein CutA wild type, Q7SIA8 (protein)
chain: MEEVVLITVPSEEVARTIAKALVEERLAACVNIVPGLTSIYRWQGEVVEDQELLLLVKTTTHAFPKLKERVKALHPYTVPEIVALPIAEGNREYLDWLRENTG
Tm (Thermus thermophilus (strain ATCC 27634 / DSM 579 / HB8), pH 7, Thermal, DSC, potassium phosphate 50 mM, reversible: No): 113 °C

B7: wild type, Q53W59 (protein)
chain: MKRLSLREAWPYLKDLQQDPLAVLLEWGRAHPRLFLPLPRFPLALIFDPEGVEGALLAEGTTKATFQYRALSRLTGRGLLTDWGKSWKEARKALKDPFLPKSVRGYREAMEEEAWAFFGEWRGEERDLDHEMLALSLRLLGRALFGKPLSPSLAEHALKALDRIMAQTRSPLALLDLAAEARFRKDRGALYREAEALIVHPPLSHLPRERALSEAVTLLVAGHETVASALTWSFLLLSHRPDWQKRVAESEEAALAAFQEALRLYPPAWILTRRLERPLLLGEDRLPQGTTLVLSPYVTQRLYFPEGEAFQPERFLAERGTPSGRYFPFGLGQRLCLGRDFALLEGPIVLRAFFRRFRLDPLPFPRVLAQVTLRPEGGLPARPREGVRA
heat capacity change of unfolding [2]: 1.15 kcal/mol/K
unfolding enthalpy (van 't Hoff) [2]: 71 kcal/mol
unfolding free energy [2]: 5.74 kcal/mol
heat capacity change of unfolding [3]: 1.17 kcal/mol/K
unfolding enthalpy (van 't Hoff) [3]: 61.7 kcal/mol
unfolding free energy [3]: 4.3 kcal/mol
Tm (Thermus thermophilus (strain ATCC 27634 / DSM 579 / HB8), pH 7.4, Thermal, CD, Potassium phosphate 50 mM, reversible: Yes): 87 °C and 83.7 °C
Tm [4]: 88 °C
heat capacity change of unfolding [4]: 1.14 kcal/mol/K
unfolding enthalpy (calorimetric) [4]: 71 kcal/mol

B8: Alpha-amylase inhibitor HOE-467A wild type, P01092 (protein)
chain: MRVRALRLAALVGAGAALALSPLAAGPASADTTVSEPAPSCVTLYQSWRYSQADNGCAQTVTVKVVYEDDTEGLCYAVAPGQITTVGDGYIGSHGHARYLARCL
Tm [5]: 68.3 °C
heat capacity change of unfolding [5]: 0.69 kcal/mol/K
unfolding enthalpy (calorimetric) [5]: 56.4 kcal/mol
heat capacity change of unfolding [6]: 0.69 kcal/mol/K
unfolding enthalpy (calorimetric) [6]: 26.3 kcal/mol
unfolding free energy [6]: 6.7 kcal/mol
Tm [7]: 81.6 °C
heat capacity change of unfolding [7]: 0.69 kcal/mol/K
unfolding enthalpy (calorimetric) [7]: 65.6 kcal/mol
